Assay [1] deals with T1, FKBP (SEQ ID NO: 142) and FRBT2098L (SEQ ID NO: 140) heterodimerization (Homo sapiens, UniProt P42345+P62942+Q04206, T2098L).
T1 construct: expressed in transfected cells; host or cells: HEK293
The assay can be described thus: A/C heterodimerizer-inducible HumTAP gene expression system in HEK293 cells. Type of assay: cell-based. Conditions: HEK293; constant A/C heterodimerizer concentration of 100 nM; FIG. 10B. The text has this: One well-characterized small-molecule based dimerization system is based on the rapamycin analog A/C (C16-(S)-7-methylindolerapamycin) that induces heterodimerization between the human proteins FK506-binding protein 12 (FKBP; SEQ ID NO: 142) and the FKBP12-rapamycin binding domain (FRB) mutant FRBT2098L (SEQ ID NO: 140), [31]. To achieve A/C heterodimerizer-inducible gene expression, the inventors fused FKBP (SEQ ID NO: 142) to the N-terminus of MTERF158-399 (SEQ ID NO: 1) and FRB (SEQ ID NO: 140) to the C-terminus of different transactivation domains (FIG. 10A). […] In accordance with the results described above, chimeric transactivation domains mediated higher maximal output expression levels than RelA430-551.
The inventors reasoned that in the present system, dimerization might be hindered by either FRB's or FKBP's fusion partner and investigated whether the addition of linkers between the protein domains might impact the EC50 value (FIG. 10 D). A combination of the cMyc nuclear localization signal (NLS) (SEQ ID NO: 122) linking MTERF158-399 and FKBP, and the rigid linker AP6 (SEQ ID NO: 120) linking FRB and RelA430-551 led to a reduction in EC50 to ~60 nM while also increasing maximal output ~3-fold over the variant without linkers and RelA430-551 as TAD (FIG. 10 D).

The test system of assay [2] is Response Element-driven mCerulean reporter (MTERF1 binding sites, SEQ ID NO: 42). The assay can be described thus: mCerulean reporter co-transfection with HumTAP constructs in HEK293 cells (flow cytometry). Type of assay: cell-based, human. Conditions: HEK293; for reporter (mCerulean) expression: TAD fused to MTERF158-399, pEF1a-driven, Example 4, FIG. 9B, C. The source says: To construct a promoter with Response Elements/MTERF1 binding sites driving the gene of interest, the inventors placed MTERF1 binding sites (SEQ ID NO: 42) upstream a minimal TATA box (SEQ ID NO: 103). An mCerulean fluorescent reporter representing the gene of interest (Gol) was placed downstream of the TATA box. Each of these is referred to as a reporter construct. Five different reporter constructs were made comprising respectively 3, 5, 7, 9, and 11 MTERF1 binding sites 6 base pairs apart upstream of the TATA box (FIG. 1A; SEQ ID NO: 41, 44, 45, 46 and 47, respectively). They were co-transfected with the MTF construct into Hela cells. […] Using flow cytometry, relative mCerulean levels were measured and calculated by normalization to the transfection control in Hela cells (FIG. 1C). […] Next, reporter plasmids with varying spacer lengths (0, 6 bp and 10 bp; SEQ ID NO: 48, 44 and 49, respectively) (FIG. 1F) between a fixed number of REs (i.e. 5 REs/MTERF1 binding sites) were transfected with the MTF construct. […] This was confirmed using flow cytometry (FIG. 1H). […]
With the goal to engineer stronger and possibly shorter HumTAPs, the inventors fused the MTERF158-399 peptide (SEQ ID NO: 1) to a variety of transactivation domains and transfected HEK293 cells with those constructs and the reporter construct comprising 5×RE/MTERF1 binding sites without a spacer between them (SEQ ID NO: 48).
First, MTERF158-399 (SEQ ID NO: 1) was fused with different subsequences of RelA. RelA361-551 (SEQ ID NO: 27) corresponds to the sequence used in the construction of the bacterial-derived synthetic TF PIT2 [19], while RelA342-551 (SEQ ID NO: 29) contains all annotated transactivation domains according to domain annotation under Uniprot Q04206 (https://www.uniprot.org/uniprotkb/Q04206/entry). […] We also fused MTERF158-399 (SEQ ID NO: 1) to a set of transactivation domains previously found to be strong activators with a small genetic footprint (FIG. 4B).
To further decrease the DNA footprint of a HumTAP, the inventors investigated to what degree the DNA binding domain may be reduced. To this end, the inventors created 3 versions of MTERF1 subsequences fused to RelA430-551 (SEQ ID NO: 3). MTERF173-399 (SEQ ID NO: 7), MTERF1104-399 (SEQ ID NO: 9), and MTERF1135-399 (SEQ ID NO: 11) are subunits of MTERF1 without its mitochondrial transfer peptide (MTERF11-57; SEQ ID NO: 37) that either lack only the first […] N-terminal amino acids (MTERF58-72; SEQ ID NO: 39) or additionally, also lack the first (MTERF173-98; SEQ ID NO: 104) or both the first and second (MTERF1104-134; SEQ ID NO: 106) mterf motifs (FIG. 5A). The removal of N-terminal domains reduces the genetic footprint of a HumTAP (FIG. 5B). These constructs were co-transfected into HEK293 cells with the reporter construct containing 5×RE without a spacer in its promoter (SEQ ID NO: 48).
In addition to RelA430-551 (termed “v1”), the inventors tested three alternative subsequences: v2) RelA342-551 (SEQ ID NO: 29), which contains all transactivation domains as annotated on UniProt Q04206; v3) RelA361-551 (SEQ ID NO: 27), which is identical to the peptide used in the construction of PIT2 [2]; and v4) RelA521-551 (SEQ ID NO: 31), which constitutes only the transactivation domain 1 (TA1). The protein domains WW (SEQ ID NO: 21), KRAB of ZNF473 (SEQ ID NO: 23), Nuc-rec-co-Act (SEQ ID NO: 25), LMSTEN (SEQ ID NO: 19), and FoxoTAD (SEQ ID NO: 17) were recently identified as strong transactivators. To assess their functionality in the HumTAP context, the inventors created fusion proteins between each of them and MTERF158-399 (SEQ ID NO: 1) (FIG. 9A).
Upon co-transfection of HEK293 cells with plasmids encoding pEF1a-driven expression of the fusion HumTAPs, a Response Element-driven mCerulean reporter protein, and a mCherry transfection control, all peptides derived from RelA except TA1 mediated high levels of reporter gene expression. […]

T1 sequence (P62942 with tags, fused parts or gaps, stated change not applied, one chain of several): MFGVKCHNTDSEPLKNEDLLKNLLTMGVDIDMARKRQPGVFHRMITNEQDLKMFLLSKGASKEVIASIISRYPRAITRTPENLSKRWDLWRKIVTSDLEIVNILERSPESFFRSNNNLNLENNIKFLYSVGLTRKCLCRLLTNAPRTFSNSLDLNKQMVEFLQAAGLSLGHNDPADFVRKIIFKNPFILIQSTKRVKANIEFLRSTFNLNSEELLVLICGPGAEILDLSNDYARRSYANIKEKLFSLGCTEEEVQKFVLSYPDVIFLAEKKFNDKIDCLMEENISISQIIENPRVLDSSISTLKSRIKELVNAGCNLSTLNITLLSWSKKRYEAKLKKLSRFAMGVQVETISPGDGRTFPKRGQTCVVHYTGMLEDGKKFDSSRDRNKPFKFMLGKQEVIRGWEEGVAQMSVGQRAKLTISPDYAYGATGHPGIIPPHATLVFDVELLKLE

B1: FRB::RelA430-551: FRBT2098L fused to RelA430-551 (protein)
chain: MVAILWHEMWHEGLEEASRLYFGERNVKGMFEVLEPLHAMMERGPQTLKETSFNQAYGRDLMEAQEWCRKYMKSGNVKDLLQAWDLYYHVFRRISQAGEGTLSEALLQLQFDDEDLGALLGNSTDPAVFTDLASVDNSEFQQLLNQGIPVAPHTTEPMLMEYPEAITRLVTGAQRPPDPAPAPLGAPGLPNGLLSGDEDFSSIADMDFSALLSQISS
Turning to B1, the “molar excess over the MTERF158-399: FKBP plasmid giving the highest mCerulean levels” value in assay [1] is 4 fold.

B2: MTERF1104-399 with FoxoTAD: FoxoTAD: MTERF1104-399 (SEQ ID NO: 9) fused to FoxoTAD: FoxoTAD (SEQ ID NO: 33) (protein, listed as Homo sapiens)
chain: EQDLKMFLLSKGASKEVIASIISRYPRAITRTPENLSKRWDLWRKIVTSDLEIVNILERSPESFFRSNNNLNLENNIKFLYSVGLTRKCLCRLLTNAPRTFSNSLDLNKQMVEFLQAAGLSLGHNDPADFVRKIIFKNPFILIQSTKRVKANIEFLRSTFNLNSEELLVLICGPGAEILDLSNDYARRSYANIKEKLFSLGCTEEEVQKFVLSYPDVIFLAEKKFNDKIDCLMEENISISQIIENPRVLDSSISTLKSRIKELVNAGCNLSTLNITLLSWSKKRYEAKLKKLSRFAHEKFPSDLDLDMFNGSLECDMESIIRSELMDADGLDFNFDSHEKFPSDLDLDMFNGSLECDMESIIRSELMDADGLDFNFDS
In the case of B2, the “strength / reporter gene expression, fold over MTF” value in assay [2] (chimeric TAD fused to MTERF1104-399, FIG. 9F) was ~ 1.5 fold.

B3: SEQ ID NO: 196: MTERF158-399 fused to two copies of the LMSTEN domain (protein)
chain: EAQNVSSHVPYPVALHVNIVNVPQPAAAAIQRHYNDEDPEKEKRIKELELLLMSTENELKGQQVLPTQNHTCSYPGWHSTEAQNVSSHVPYPVALHVNIVNVPQPAAAAIQRHYNDEDPEKEKRIKELELLLMSTENELKGQQVLPTQNHTCSYPGWHST
On to B3, for which, in assay [2] (two copies of TAD fused to MTERF158-399, Example 4, FIG. 9C), the “mCerulean/reporter expression, fold more than one copy of the TAD” value is ~ 2.7 fold.

B4: SEQ ID NO: 52: MTERF158-399 fused to chimeric TAD consisting of FoxoTAD, LMSTEN, and TA1 (protein)
chain: HEKFPSDLDLDMFNGSLECDMESIIRSELMDADGLDFNFDSEAQNVSSHVPYPVALHVNIVNVPQPAAAAIQRHYNDEDPEKEKRIKELELLLMSTENELKGQQVLPTQNHTCSYPGWHSTPGLPNGLLSGDEDFSSIADMDFSALLSQISS
B4: the “reporter gene expression relative to RelA430-551” value in assay [2] (fused to MTERF158-399, FIG. 9C) was determined as 3.7 times.

B5: SEQ ID NO: 54: MTERF158-399 fused to FoxoTAD with LMSTEN (protein)
chain: HEKFPSDLDLDMFNGSLECDMESIIRSELMDADGLDFNFDSEAQNVSSHVPYPVALHVNIVNVPQPAAAAIQRHYNDEDPEKEKRIKELELLLMSTENELKGQQVLPTQNHTCSYPGWHST
For the molecule B5, the “reporter (mCerulean) expression” value in assay [2] was “smaller and stronger than the benchmark”.

B6: MTERF1135-399: MTERF1 lacking N-term and first and second Mterf motif, fused to RelA430-551 (protein, listed as Homo sapiens)
chain: TPENLSKRWDLWRKIVTSDLEIVNILERSPESFFRSNNNLNLENNIKFLYSVGLTRKCLCRLLTNAPRTFSNSLDLNKQMVEFLQAAGLSLGHNDPADFVRKIIFKNPFILIQSTKRVKANIEFLRSTFNLNSEELLVLICGPGAEILDLSNDYARRSYANIKEKLFSLGCTEEEVQKFVLSYPDVIFLAEKKFNDKIDCLMEENISISQIIENPRVLDSSISTLKSRIKELVNAGCNLSTLNITLLSWSKKRYEAKLKKLSRFA
As to B6, the “functionality of synTF with truncated DBD” value in assay [2] (FIG. 9E) was “non-functional”. Also, the “output expression / transcriptional activation” value in assay [2] (N-terminally truncated MTERF1 fused to RelA430-551, reporter SEQ ID NO: 48 (Example 1, FIG. 5B)) is “complete loss of transcriptional activation”.

B7: SEQ ID NO: 194: MTERF158-399 fused to three TA1 domains (protein)
chain: PGLPNGLLSGDEDFSSIADMDFSALLSQISSPGLPNGLLSGDEDFSSIADMDFSALLSQISSPGLPNGLLSGDEDFSSIADMDFSALLSQISS
Take B7: the “reporter (mCerulean) expression” value in assay [2] is “further increased output expression”.

B8: SEQ ID NO: 56: MTERF158-399 fused to LMSTEN with TA1 (protein)
chain: EAQNVSSHVPYPVALHVNIVNVPQPAAAAIQRHYNDEDPEKEKRIKELELLLMSTENELKGQQVLPTQNHTCSYPGWHSTPGLPNGLLSGDEDFSSIADMDFSALLSQISS
Take B8: in assay [2], the “reporter (mCerulean) expression” value was “smaller and stronger than the benchmark”.

B9: SEQ ID NO: 58: MTERF158-399 fused to FoxoTAD with TA1 (protein)
chain: HEKFPSDLDLDMFNGSLECDMESIIRSELMDADGLDFNFDSPGLPNGLLSGDEDFSSIADMDFSALLSQISS
Consider B9, for which, in assay [2], the “reporter (mCerulean) expression” value was “smaller and stronger than the benchmark”.

(Values after patent US20260200999A1, “SYNTHETIC TRANSCRIPTION FACTORS” (ETH ZURICH, priority 2022, published 2026).)
